One assay addresses SARS-CoV Spike trimer (SARS-CoV, UniProt P59594 14-1190). As to the kind of experiment: SPR (FIG. 37D).
Assay [1] deals with SARS-CoV-2 receptor binding domain (RBD) (SARS-CoV-2, UniProt P0DTC2 319-591). As to the kind of experiment: ELISA (FIG. 10).

B1: monoclonal antibody 2-4 (antibody, V domains shown)
VH: QVQLVQSGAEVKKPGASVKVSCKASGYTFTGYYMHWVRQAPGQGLEWMGWINPNSGGTNYTQMFQGRVTMTRDTSISTAYMEVSRLRSDDTAVYYCARDRSWAVVYYYMDVWGKGTTVTVSS
VL: QSALTQPPSASGSPGQSVTISCTGTSSDVGGYNYVSWYQQHPGKAPKLMIYEVSKRPSGVPDRFSGSKSGNTASLTVSGLQAEDEADYYCSSYAGSNNLVFGGGTKLTVL
Consider B1, for which the binding result in the assay with SARS-CoV Spike trimer is on record as “no binding”.

B2: monoclonal antibody 4-20 (antibody, V domains shown)
VH: QVQLLQSGAEVKKPGASVKVSCKASGYSFTSYYMHWVRQAPGQGLEWMGIINPSGGGTTYAQKFQGRVTMTRDTSTSTVYMELSSLRSEDTAVYYCARPGGGSYQEFDYWGQGTLVTVSS
VL: DIQMTQSPSSLSASVGDRVTITCRASQSISSYLNWYQQKPGKAPKLLISAASSLQSGVPSRFSGSGSGTDFTLTISSLQPEDFATYYCQQSYNTLQVTFGGGTKVEIK
On to B2, for which the binding result in assay [1] is listed as “binds”.

B3: monoclonal antibody 2-7 (antibody, V domains shown)
VH: QITLKESGPTLVKPTQTLTLTCTFSGFSLSTSGVGVGWIRQPPGKALEWLALIYWDDDKRYSPSLKSRLTITKDTSKNQVVLTMTNMDPVDTATYYCAHHKIERIFDYWGQGTLVTVSS
VL: QSALAQPASVSGSPGQSITISCTGTSSDVGAYNYVSWYQQHPGKAPKLMIYDVSKRPSGVSNRFSGSKSGNTASLTISGLQAEDEADYYCSSYTTSSTVFGGGTKLTVL
Consider B3, for which, in assay [1], the binding result is reported as “binds”.

B4: monoclonal antibody 1-20 (antibody, V domains shown)
VH: EVQLVESGGGLIQPGGSLRLSCAASGLTVSSNYMSWVRQAPGKGLEWVSVIYSGGSTFYADSVKGRFTISRDNSKNTLYLQMNSLRAEDTAVYYCARDLFYYGMDVWGQGTTVTVSS
VL: DIQLTQSPSFLSASVGDRVTITCRASQGISSYLAWYQQKPGKAPKLLIYAASTLQSGVPSRFSGSGSGTEFTLTISSLQPEDFATYYCQQLNSYPCFGPGTKVDIK
B4: the binding result in assay [1] is “binds”.

B5: monoclonal antibody 2-30 (antibody, V domains shown)
VH: QVQLVESGGGVVQPGRSLRLSCAASGFTFSSYTMHWVRQAPGKGLEWVAAISYDGNNKYYADSVKGRFTISRDNSKNTLYLQMNSLRAEDTAVYYCARSILYGGGMDVWGQGTTVTVSS
VL: DIQLTQSPSSLSASVGDRVTITCRASQGISSYLAWYQQKPGQAPKLLIYAASTLQSGVPSRFSGSGSGTDFTLTISSLQPEDFATYYCQQLNSYPLTFGGGTKVEIK
On to B5, for which the binding result in assay [1] was “binds”.

(Values after patent US20230203138A1 (TRUSTEES OF COLUMBIA UNIVERSITY IN THE CITY OF NEW YORK, published 2023).)
